Test [1] deals with T1, Full-length His-tagged IL-17F protein (ab167911, Abcam) (human, UniProt Q96PD4 31-163).
T1 construct: Bought protein, called full-length and His-tagged; also called human IL-17F protein; recombinant human IL-17F protein; not shown: His tag
T1 sequence: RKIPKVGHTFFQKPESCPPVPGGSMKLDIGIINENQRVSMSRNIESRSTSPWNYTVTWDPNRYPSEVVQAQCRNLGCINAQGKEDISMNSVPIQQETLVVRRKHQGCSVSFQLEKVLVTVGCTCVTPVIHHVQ
The test can be described thus: sandwich ELISA; biotinylated macrocycle on NeutrAvidin plate, His-tagged IL-17F titrated. A general note: ELISA stands for enzyme-linked immunosorbent assay.

Test [2] deals with T1, Full-length His-tagged IL-17F protein …. As to the kind of experiment: point ELISA; macrocycle on NeutrAvidin plate, His-tagged IL-17F against His-tagged IL-17A at 100 nM.
The target is the same in test [3]. As to the kind of experiment: binding to His-tagged IL-17F human recombinant protein.
For test [4] the target is unchanged. As to the kind of experiment: binding to His-tagged IL-17F human recombinant protein (ELISA format); reference: the individual PCC macrocycles Cy(RRATSX1X2) and Cy(RSYNKX1X2).
Test [5] has the same target. As to the kind of experiment: binding to His-tagged IL-17F human recombinant protein (ELISA format); PEG3-linked biligand; binding to His-tagged IL-17F, not in solution.
Test [6] shares this target. As to the kind of experiment: fluorescence polarization in solution; in solution by fluorescence polarization. In general terms: In fluorescence polarisation assays a small probe gives low polarisation when free and higher when bound to something large.
Test [7] shares this target. The test can be described thus: point ELISA; recombinant human IL-17F against IL-17A.
Test [8] deals with T2, Plasmodium falciparum Histidine Rich Protein-2 (Plasmodium falciparum).
T2 construct: the construct used in the assay is not described; also called Pf.HRP-2
T2 chain: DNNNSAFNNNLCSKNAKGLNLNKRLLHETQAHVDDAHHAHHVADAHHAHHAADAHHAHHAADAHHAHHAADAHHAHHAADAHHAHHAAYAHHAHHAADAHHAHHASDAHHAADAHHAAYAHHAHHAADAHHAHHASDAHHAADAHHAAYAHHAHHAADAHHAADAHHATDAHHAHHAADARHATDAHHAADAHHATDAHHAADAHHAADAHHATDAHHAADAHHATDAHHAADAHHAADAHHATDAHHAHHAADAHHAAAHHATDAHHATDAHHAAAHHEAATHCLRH
The test can be described thus: assay not described; monoligand cy(GWNVDL).

Test [9] addresses T2, Plasmodium falciparum Histidine Rich …. As to the kind of experiment: assay not described; two Cy(YKYYR) PCCs joined by about a 1.5 nm linker.
Test [10] deals with T1, Full-length His-tagged IL-17F protein …. As to the kind of experiment: point ELISA; macrocycle on NeutrAvidin plate, His-tagged IL-17F against His-tagged IL-17A.
Test [11] has the same target. The test can be described thus: point ELISA; surface-immobilized macrocycle with IL-17F, IL-17A or no protein.
Test [12] has as its target T3, His6-PEG3-FFQKPESSPVSPGPG (not fully specified (N-terminus); printed as His6-PEG3-FFQKPESSPVSPGPG).
T3 construct: Synthetic; residues C-terminal to C48S scrambled
T3 peptide: FFQKPESSPVSPGPG
As to the kind of experiment: point ELISA; macrocycle on NeutrAvidin plate, 2 µM His-tagged epitope.

Test [13] concerns the target T4, His6-PEG3-FFQKPESSPPVPGGS (human, not fully specified (N-terminus); printed as His6-PEG3-FFQKPESSPPVPGGS).
T4 construct: Not clear whether the listing entry holds the His6
T4 peptide: FFQKPESSPPVPGGS
The test is described as above.

Test [14] addresses T5, His6-PEG3-SQFEKFPSPPVPGGS (not fully specified (N-terminus); printed as His6-PEG3-SQFEKFPSPPVPGGS).
T5 construct: Synthetic; residues N-terminal to C48S scrambled
T5 peptide: SQFEKFPSPPVPGGS
The test can be described thus: point ELISA; macrocycle on NeutrAvidin plate, His-tagged epitope, anti-His-AP detection.

The target of test [15] is T1, Full-length His-tagged IL-17F protein …. The test can be described thus: sandwich ELISA; biotinylated macrocycle on NeutrAvidin plate, His-tagged IL-17F titrated, anti-His-AP detection.
For test [16] the target is unchanged. As to the kind of experiment: fluorescence polarization in solution; IL-17F titrated against 5-FITC-tagged macrocycle; 5-FITC-tagged LF1, fluorescence polarization in solution.
For test [17] the target is unchanged. The test can be described thus: not stated in the sentence (same number as the ELISA EC50 of paragraph 504); monoligand Cy(RSYNKX1X2), not the biligand.
For test [18] the target is unchanged. As to the kind of experiment: fluorescence polarization in solution; IL-17F titrated against 5-FITC-tagged macrocycle; 5-FITC-tagged LF2, fluorescence polarization in solution.
Test [19] addresses T2, Plasmodium falciparum Histidine Rich …. As to the kind of experiment: assay not described.
Test [20] has the same target. As to the kind of experiment: assay not described; biligand cy(YKYYR)-linker-cy(GWNVDL).
Test [21] shares this target. The test can be described thus: assay not described; monoligand Cy(YKYYR).

Bridge positions count the residues as written; N and C are the ends. Square brackets hold non-standard residues; d marks the D form. Ends that are not written are not given here. I, II: the chains in the order shown. Lys(N3) = [N-]=[N+]=NCCCC[C@H](N)C(=O)O; Pra = C#CC[C@H](N)C(=O)O A value given as a limit tells only on which side of the number the result lay.

B1: Biotin-PEG3-Cy(KKGWPX1X2) (peptide)
peptide: KKGWP[Lys(N3)][Pra]
modifications: triazole 6-7; not fully specified (N-terminus, bridges); printed as Biotin-PEG3-Cy(KKGWPX1X2); also: no peptide bond X6-X7, Pra is the true N-terminus, Az4 the true C-terminus, Biotin-PEG3 label at N-terminus (on Pra)
A word on the EC50: it is the concentration at which the effect is half-maximal. The low end stands for a more potent agent, the high end for a less potent agent. Consider B1, for which, in test [1], the midpoint of the response, the EC50, lay at 24 nM. Moreover, in test [2], the “selectivity for IL-17F over IL-17A” value was 4 ratio IL-17F:IL-17A.

B2: Biotin-PEG3-Cy(RSYNKX1X2)-PEG3-Cy(RRATSX1X2) (designed binder)
peptide 1: RSYNK[Lys(N3)][Pra]
peptide 2: RRATS[Lys(N3)][Pra]
modifications: triazole I:6-I:7, II:6-II:7; not fully specified (N-terminus, C-terminus); printed as Biotin-PEG3-Cy(RSYNKX1X2)-PEG3-Cy(RRATSX1X2); also: chain 1 joined to chain 2 through one PEG3 linker, backbone orders Pra-RSYNK-Az4 and Pra-RRATS-Az4, no bonds X6-X7
notes: One covalent molecule: two macrocyclic peptides joined by a single PEGylated amino acid (not a peptide linker), written here as two peptide segments; also called Bi-LF; anti-IL-17F biligand with PEG3 linker
The Kd is the free concentration of one partner at which half of the binding sites on the other are occupied at equilibrium, for simple one-to-one binding. B2: in test [3], the “fold better binder than the biligands with other linkers” value was roughly 10 fold and the “times stronger than the other biligands” value was no less than 16 fold. The “fold improvement in affinity relative to the individual PCC macrocyclic ligands” value in test [4] is greater than 100 fold. Besides, the Kd in [5] was 0.246 nM. Moreover, the Kd in [6] was determined as 0.252 nM. The “selectivity for IL-17F over IL-17A” value in [7] was 4 ratio IL-17F:IL-17A.
Consider GWNVDL (not fully specified (bridges); also: cyclic, ring closure not given here, also called cy(GWNVDL)) [cyclic PCC with variable sequence GWNVDL], for which the EC50 in test [8] was 50 nM.

B3: linked biligand of two Cy(YKYYR) PCCs (designed binder)
peptide: YKYYR
modifications: not fully specified (bridges)
notes: also called The resultant linked biligand
For the molecule B3, the EC50 in test [9] stood at 20.8 nM.

B4: Cy(RRATSX1X2)-PEG3-biotin (peptide)
peptide: RRATS[Lys(N3)][Pra]
modifications: triazole 6-7; not fully specified (C-terminus, bridges); printed as Cy(RRATSX1X2)-PEG3-biotin; also: no peptide bond X6-X7, Pra is the true N-terminus, Az4 the true C-terminus, PEG3-biotin label at C-terminus (on Az4)
notes: Biotin-PEG3 form used on NeutrAvidin plates; also called LF1
For the molecule B4, the “selectivity for IL-17F over IL-17A” value is 2 ratio IL-17F:IL-17A in test [10] and 10 ratio IL-17F:IL-17A in test [11]. Moreover, the binding result is given as “binds” in test [12], “binds” in test [13] and “no binding (tested: 2 µM epitope)” in test [14]. In [15], this molecule showed an EC50 of 66 nM. The Kd in test [16] turned out to be 50 nM.

B5: Cy(RRAQSX1X2)-PEG3-biotin (peptide)
peptide: RRAQS[Lys(N3)][Pra]
modifications: triazole 6-7; not fully specified (C-terminus, bridges); printed as Cy(RRAQSX1X2)-PEG3-biotin; also: no peptide bond X6-X7, Pra is the true N-terminus, Az4 the true C-terminus, PEG3-biotin label at C-terminus (on Az4)
Consider B5, for which, in test [10], the “selectivity for IL-17F over IL-17A” value was 2 ratio IL-17F:IL-17A. The binding result in test [12] is “binds”; in test [13], “binds”; in [14], “no binding (tested: 2 µM epitope)”. For the same molecule, the concentration for a half-maximal effect (EC50) in test [15] was found to be 52 nM.

B6: Biotin-PEG3-Cy(RSYNKX1X2) (peptide)
peptide: RSYNK[Lys(N3)][Pra]
modifications: triazole 6-7; not fully specified (N-terminus, bridges); printed as Biotin-PEG3-Cy(RSYNKX1X2); also: no peptide bond X6-X7, Pra is the true N-terminus, Az4 the true C-terminus, Biotin-PEG3 label at N-terminus (on Pra)
notes: also called LF2
On to B6, for which a half-maximal response in [1] (EC50) required 15 nM. Further, in test [2], the “selectivity for IL-17F over IL-17A” value is 4 ratio IL-17F:IL-17A. The Kd in test [17] turned out to be 15 nM; in test [18], 28 nM.

B7: cy(YKYYR)-linker-cy(GWNVDL) (designed binder)
peptide 1: YKYYR
peptide 2: GWNVDL
modifications: not fully specified (bridges); printed as cy(YKYYR)-linker-cy(GWNVDL)
notes: also called The resultant biligand
For the molecule B7, the “fold improvement over the better of the two ligand components” value in test [19] was 100 fold. Further, the EC50 in test [20] was 0.54 nM.
Molecule YKYYR (also: cyclic, ring type not given here, also called cyclic YKYYR) [Cy(YKYYR)] yielded an EC50 in [21] of 220 nM.
